As usually defined, the Kd is the equilibrium constant for the complex coming apart.

This is an account of results in US20230012273A1 (Boehringer Ingelheim, published 2023).

The target in assay [1] is T1, full-length human SIRPγ N→D on Expi-CHO cells (human, UniProt Q9P1W8 29-387).
T1 construct: the entry already carries the change (PENV to PEDV)
The assay can be described thus: flow cytometry, Expi-CHO cells expressing full-length human SIRPγ N→D. The procedure: Expi-CHO parental cells are transduced with lentiviruses containing either full-length wild-type human SIRPγ ([…]) or full-length human SIRPγ with amino acid point mutations (Table 64) and sorted to achieve matching expression levels. These cells are blocked with donkey IgG and incubated on ice with increasing concentrations of antibodies for 60 minutes, washed and stained with AF647-conjugated donkey F(ab′)₂ anti-human IgG antibodies. Stained cells are washed, fixed, and analyzed by flow cytometry. Median fluorescent intensity is determined and used as a measure of antibody binding.
On the technique in general: A flow cytometer gives signals particle by particle.

For assay [2], the target named is T2, cynomolgus SIRPγ (XP_005568591) extracellular domain + His-tag (cynomolgus monkey, UniProt Q9P1W8 29-359 (human entry)).
T2 construct: SPR analyte; also called Cyno SIRPγ XP_005568591; cynoSIRPγ; not shown: His-tag
T2 chain: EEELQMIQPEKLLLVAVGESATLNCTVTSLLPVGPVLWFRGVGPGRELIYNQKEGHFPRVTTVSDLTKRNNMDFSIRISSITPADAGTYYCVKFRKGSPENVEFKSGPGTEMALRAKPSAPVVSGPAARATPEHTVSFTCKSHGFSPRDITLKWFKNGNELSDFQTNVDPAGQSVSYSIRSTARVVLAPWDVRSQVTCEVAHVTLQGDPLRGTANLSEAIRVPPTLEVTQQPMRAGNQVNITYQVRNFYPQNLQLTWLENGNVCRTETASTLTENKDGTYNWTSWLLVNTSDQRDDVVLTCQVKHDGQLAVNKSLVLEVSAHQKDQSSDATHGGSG
Nature of the assay: SPR. In a few lines:
(§1)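 SPR; Ab capture surface, ethanolamine-deactivated (1M, 420 s, 10 μl/min). Analyte: SIRP ECD+His, 2-fold dilution series in 1×HBS-EP+. Inject 300 s @ 30 μl/min; dissoc. 600 s.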

Assay [3] has as its target T3, cynomolgus SIRPβ1 (XP_005568598) extracellular domain + His-tag (cynomolgus monkey).
T3 construct: SPR analyte; also called Cyno SIRPβ1 XP_005568598; cynoSIRPβ1; not shown: His-tag
T3 chain: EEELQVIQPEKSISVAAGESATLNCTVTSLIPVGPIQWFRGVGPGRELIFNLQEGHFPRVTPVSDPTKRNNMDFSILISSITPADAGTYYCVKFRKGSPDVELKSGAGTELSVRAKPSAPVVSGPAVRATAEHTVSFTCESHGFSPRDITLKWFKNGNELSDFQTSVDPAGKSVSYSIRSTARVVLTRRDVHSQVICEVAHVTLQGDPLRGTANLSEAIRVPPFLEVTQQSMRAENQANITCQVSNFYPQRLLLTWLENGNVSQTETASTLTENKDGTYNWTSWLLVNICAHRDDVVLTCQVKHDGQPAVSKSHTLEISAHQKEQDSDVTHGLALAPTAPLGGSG
The assay can be described thus: SPR. In a few lines: as §1
In general terms: Surface plasmon resonance follows binding to a sensor surface in real time, without labels.

In assay [4] the target is full-length human SIRPβ1 D→H on Expi-CHO cells (human, UniProt O00241 30-398). The assay can be described thus: flow cytometry, Expi-CHO cells. The method, then: These cells are blocked with donkey IgG and incubated on ice with increasing concentrations of antibodies for 60 minutes, washed and stained with AF647-conjugated donkey F(ab′)₂ anti-human IgG antibodies. Stained cells are washed, fixed, and analyzed by flow cytometry. Median fluorescent intensity is determined and used as a measure of antibody binding.

Assay [5] addresses T4, cynomolgus SIRPβ1v3 extracellular domain + His-tag (XP_005568593) (cynomolgus monkey).
T4 construct: also called Cyno SIRPβ1v3; cynoSIRPβ1v3
T4 chain: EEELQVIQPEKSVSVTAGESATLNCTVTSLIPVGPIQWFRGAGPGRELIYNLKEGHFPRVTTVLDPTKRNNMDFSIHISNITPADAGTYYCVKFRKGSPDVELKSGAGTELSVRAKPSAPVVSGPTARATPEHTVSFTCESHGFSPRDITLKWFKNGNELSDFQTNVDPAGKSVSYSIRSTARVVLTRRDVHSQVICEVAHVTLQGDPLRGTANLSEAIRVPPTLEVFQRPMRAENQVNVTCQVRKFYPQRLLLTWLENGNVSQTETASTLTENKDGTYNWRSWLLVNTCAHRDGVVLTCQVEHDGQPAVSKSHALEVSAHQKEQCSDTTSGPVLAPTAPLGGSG
The assay can be described thus: SPR, Ab captured, ECD-His analyte. In a few lines: as §1

In assay [6] the target is T5, full-length human SIRPβL (NP_001129316.1) on cells (human, UniProt Q5TFQ8 30-398).
T5 construct: on U937 SIRPα KO cells and Expi-CHO cells; also called βL WT; SIRPβ1v3
The assay can be described thus: flow cytometry, U937 SIRPα KO cells. An outline of the steps:
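Binding read as median fluorescence intensity after AF647 anti-human IgG staining and fixation. Antibodies were titrated onto donkey-IgG-blocked U937^{SIRPα KO} transfectants bearing SIRPβ1 or SIRPβL for 60 minutes on ice.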

Assay [7] deals with T6, human SIRPβ1 extracellular domain + His-tag (NP_006056.2) (human, UniProt O00241 30-371).
T6 construct: also called hSIRPβ1; HuSIRPβ1
Nature of the assay: SPR, Ab captured, ECD-His analyte. An outline of the steps: as §1

Assay [8] deals with T7, human SIRPγ extracellular domain + His-tag (NP_061026.2) (human, UniProt Q9P1W8 29-360).
T7 construct: also called hSIRPγ; HuSIRPγ
The assay can be described thus: SPR, Ab captured, ECD-His analyte. An outline of the steps: as §1

Assay [9] has as its target T8, human SIRPβL/SIRPβ1v3 extracellular domain + His-tag (NP_001129316.1) (human, UniProt Q5TFQ8 30-371).
T8 construct: also called hSIRPβ1v3; HuSIRPβ1v3
The assay can be described thus: SPR, Ab captured, ECD-His analyte. In a few lines: as §1

T8 sequence (Q5TFQ8 other isoform, or with tags, fused parts or gaps): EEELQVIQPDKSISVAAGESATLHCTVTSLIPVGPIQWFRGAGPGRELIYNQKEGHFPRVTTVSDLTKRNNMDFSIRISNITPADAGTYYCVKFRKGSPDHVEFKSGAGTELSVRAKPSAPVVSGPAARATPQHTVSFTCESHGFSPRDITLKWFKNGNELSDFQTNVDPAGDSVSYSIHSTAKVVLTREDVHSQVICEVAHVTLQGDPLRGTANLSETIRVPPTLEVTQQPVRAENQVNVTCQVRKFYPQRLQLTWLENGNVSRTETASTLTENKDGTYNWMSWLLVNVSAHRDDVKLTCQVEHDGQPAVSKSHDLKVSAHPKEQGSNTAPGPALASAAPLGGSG
T1 sequence (Q9P1W8 29-387 N129D): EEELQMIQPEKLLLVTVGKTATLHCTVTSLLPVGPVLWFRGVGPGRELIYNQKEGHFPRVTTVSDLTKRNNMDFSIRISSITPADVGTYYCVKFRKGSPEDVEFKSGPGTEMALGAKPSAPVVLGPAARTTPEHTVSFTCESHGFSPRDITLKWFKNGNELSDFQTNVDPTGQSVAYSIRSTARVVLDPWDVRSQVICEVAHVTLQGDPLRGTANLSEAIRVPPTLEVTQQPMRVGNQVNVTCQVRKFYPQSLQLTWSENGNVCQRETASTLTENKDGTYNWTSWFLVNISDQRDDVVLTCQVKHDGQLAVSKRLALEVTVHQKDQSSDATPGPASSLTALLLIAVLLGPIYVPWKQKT
T7 sequence (Q9P1W8 29-360): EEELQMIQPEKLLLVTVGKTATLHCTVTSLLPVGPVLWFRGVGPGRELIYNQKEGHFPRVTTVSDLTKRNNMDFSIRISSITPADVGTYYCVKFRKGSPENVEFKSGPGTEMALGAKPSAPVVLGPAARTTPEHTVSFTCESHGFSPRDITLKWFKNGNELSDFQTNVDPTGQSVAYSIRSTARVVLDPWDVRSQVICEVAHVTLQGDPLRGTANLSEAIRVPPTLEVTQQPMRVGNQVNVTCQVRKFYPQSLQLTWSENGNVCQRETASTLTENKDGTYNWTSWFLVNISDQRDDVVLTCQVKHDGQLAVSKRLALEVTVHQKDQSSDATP
T5 sequence (Q5TFQ8 30-398): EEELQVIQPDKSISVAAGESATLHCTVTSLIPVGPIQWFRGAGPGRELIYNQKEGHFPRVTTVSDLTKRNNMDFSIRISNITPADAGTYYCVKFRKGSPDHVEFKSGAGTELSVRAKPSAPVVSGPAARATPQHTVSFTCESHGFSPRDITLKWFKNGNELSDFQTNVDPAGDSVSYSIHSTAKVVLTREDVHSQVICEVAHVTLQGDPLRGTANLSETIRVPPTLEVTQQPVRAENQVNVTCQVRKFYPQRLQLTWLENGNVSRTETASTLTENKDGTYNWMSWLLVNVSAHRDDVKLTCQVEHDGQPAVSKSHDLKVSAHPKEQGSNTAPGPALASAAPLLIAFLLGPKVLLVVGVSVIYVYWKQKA
Chain of full-length human SIRPβ1 D→H on Expi-CHO cells (O00241 30-398 D130H): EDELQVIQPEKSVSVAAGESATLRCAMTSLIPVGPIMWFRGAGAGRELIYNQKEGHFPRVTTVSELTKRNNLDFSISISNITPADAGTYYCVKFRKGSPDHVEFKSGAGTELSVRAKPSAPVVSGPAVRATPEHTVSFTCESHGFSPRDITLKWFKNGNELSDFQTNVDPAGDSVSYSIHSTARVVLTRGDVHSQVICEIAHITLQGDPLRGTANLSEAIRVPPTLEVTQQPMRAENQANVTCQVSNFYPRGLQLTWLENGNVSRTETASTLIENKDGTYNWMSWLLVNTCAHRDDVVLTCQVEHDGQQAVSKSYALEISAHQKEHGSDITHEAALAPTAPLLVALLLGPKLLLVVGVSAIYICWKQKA
T6 sequence (O00241 other isoform, or with tags, fused parts or gaps): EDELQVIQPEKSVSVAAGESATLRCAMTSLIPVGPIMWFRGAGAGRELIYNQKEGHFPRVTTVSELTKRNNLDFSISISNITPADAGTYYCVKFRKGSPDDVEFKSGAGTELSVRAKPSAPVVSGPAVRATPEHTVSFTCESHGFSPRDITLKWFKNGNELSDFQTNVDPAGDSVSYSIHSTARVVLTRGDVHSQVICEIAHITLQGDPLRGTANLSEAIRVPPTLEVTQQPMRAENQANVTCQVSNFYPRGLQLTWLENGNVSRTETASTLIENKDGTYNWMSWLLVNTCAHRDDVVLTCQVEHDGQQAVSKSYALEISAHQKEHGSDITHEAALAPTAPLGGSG

B1: Antibody E (antibody, human IgG1, kappa, L234A L235A)
heavy: not shown
light: DIVMTQSPLSLPVTPGEPASISCKSSQSLLYSNGYNYLDWYLQRPGQSPQLLIYLGSNRASGVPDRFSGSGSGTDFTLKISRVEAEDVGVFYCMQALQTPLTFGGGTKVEIKRTVAAPSVFIFPPSDEQLKSGTASVVCLLNNFYPREAKVQWKVDNALQSGNSQESVTEQDSKDSTYSLSSTLTLSKADYEKHKVYACEVTHQGLSSPVTKSFNRGEC
For B1, the binding result was “no binding (tested: about 67 nM)” in assay [1], “no binding (tested: 1000 nM)” in [2] and “no binding (tested: 1000 nM)” in assay [3].

B2: Antibody E22 (antibody, human IgG1, kappa, L234A L235A, V domains shown)
VH: QVQLQESGPGLVKPSETLSLTCTVSGGSIRDYYWSWIRQPPGKGLEWIGFIYYNGRTFYQSSLKSRVTISLDTSKNQFSLKMTSVTAADTAVYYCARVRAYSGIGLDGTDVWGQGTTVTVSS
VL: DIVMTQSPLSLPVTPGEPASISCRSSQSLLYSTGYTYLDWYLQRPGQSPQLLIYGGSSRASGVPDRFSGSGSGTDFTLKISRVEAEDVGVFYCGQALQTPLTFGQGTKVEIKR
As to B2, the binding result is “no binding (tested: about 67 nM)” in assay [1], “no binding (tested: 1000 nM)” in assay [2] and “no binding (tested: 1000 nM)” in [3].

B3: Antibody A (antibody, human IgG1, kappa, L234A L235A)
heavy: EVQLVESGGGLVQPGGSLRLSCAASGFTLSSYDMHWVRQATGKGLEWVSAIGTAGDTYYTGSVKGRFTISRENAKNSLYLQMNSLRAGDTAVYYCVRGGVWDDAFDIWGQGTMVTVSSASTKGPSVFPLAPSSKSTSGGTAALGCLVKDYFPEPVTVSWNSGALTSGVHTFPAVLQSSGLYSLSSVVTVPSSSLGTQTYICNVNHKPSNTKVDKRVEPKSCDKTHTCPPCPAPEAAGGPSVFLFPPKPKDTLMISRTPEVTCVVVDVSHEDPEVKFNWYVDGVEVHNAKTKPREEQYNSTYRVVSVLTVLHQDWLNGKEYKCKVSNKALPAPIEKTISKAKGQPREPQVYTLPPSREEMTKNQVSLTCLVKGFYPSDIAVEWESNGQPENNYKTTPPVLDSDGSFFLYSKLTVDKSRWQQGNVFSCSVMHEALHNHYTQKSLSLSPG
light: DIQMTQSPSSLSASVGDRVTITCRASQDINNYLAWFQQKPGKAPKSLIYTASSLHSGVPSKFSGSGSGTDFTLTISSLQPEDFATYYCQQYVSYPYTFGQGTKLEIKRTVAAPSVFIFPPSDEQLKSGTASVVCLLNNFYPREAKVQWKVDNALQSGNSQESVTEQDSKDSTYSLSSTLTLSKADYEKHKVYACEVTHQGLSSPVTKSFNRGEC
For B3, the binding result in [4] is on record as “no binding”; in assay [6], “no binding”; in assay [8], “no binding (tested: 1000 nM)”; in [9], “no binding (tested: 100 nM)”. Moreover, the Kd in assay [5] worked out at 246 nM; in assay [7], 64.8 nM.

B4: Antibody A10 (antibody, human IgG1, kappa, L234A L235A)
heavy: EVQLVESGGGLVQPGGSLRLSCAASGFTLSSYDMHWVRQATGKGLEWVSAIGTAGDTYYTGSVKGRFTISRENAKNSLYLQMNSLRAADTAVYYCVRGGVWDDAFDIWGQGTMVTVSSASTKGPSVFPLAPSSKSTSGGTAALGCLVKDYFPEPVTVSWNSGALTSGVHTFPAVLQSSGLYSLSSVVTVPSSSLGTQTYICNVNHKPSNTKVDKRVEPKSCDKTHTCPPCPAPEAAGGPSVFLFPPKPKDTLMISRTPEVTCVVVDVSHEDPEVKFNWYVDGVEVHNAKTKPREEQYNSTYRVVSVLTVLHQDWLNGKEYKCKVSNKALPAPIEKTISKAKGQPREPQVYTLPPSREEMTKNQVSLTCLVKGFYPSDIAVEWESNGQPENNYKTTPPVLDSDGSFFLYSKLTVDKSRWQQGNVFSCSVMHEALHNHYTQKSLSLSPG
light: B3 light
For the molecule B4, the binding result in assay [4] is listed as “no binding”; in assay [6], “no binding”; in assay [8], “no binding (tested: 1000 nM)”; in assay [9], “no binding (tested: 100 nM)”. The equilibrium dissociation constant (Kd) is 271 nM in [5] and 69 nM in assay [7].
